Source: article PMC5737521 (Nucleic Acids Research, 2017)
Blank lines part the entries; values can stand above or below the binder they belong to.

Assays:
[1] = biological target: T1, FosB bZIP domain;JunD bZIP domain (Homo sapiens (cloned from identical Mus …, UniProt P53539;P17535 153-219;266-332, |)); assay: fluorescence polarization
T1 sequence 1: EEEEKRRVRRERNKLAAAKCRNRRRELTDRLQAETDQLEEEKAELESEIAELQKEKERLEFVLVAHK
T1 sequence 2: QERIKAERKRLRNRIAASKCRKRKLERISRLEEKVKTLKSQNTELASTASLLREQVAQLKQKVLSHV

crystal structure = biological target: the molecule itself; assay: crystal structure
[2] = biological target: T2, H. sapiens JunD bZIP domain (residues Q266-V332) (human, UniProt P17535 266-332); assay: crystal structure
T2 sequence: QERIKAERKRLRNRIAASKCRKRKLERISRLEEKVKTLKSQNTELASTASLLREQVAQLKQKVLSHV

[3] = biological target: the molecule itself; assay: fluorescence polarisation

B1: TAMRA AP-1 19-mer (cyclin-dependent kinase 5 promoter) (dsDNA)
DNA 1: CGTCGGTGACTCAAAACAC
DNA 2: GTGTTTTGAGTCACCGACG
binding result [1]: binds

binding result [2]: binds
B2: Homo sapiens FosB bZIP domain (residues E153-K219) (domain or fragment)
chain: EEEEKRRVRRERNKLAAAKCRNRRRELTDRLQAETDQLEEEKAELESEIAELQKEKERLEFVLVAHK
binding result (crystal structure): binds

B3: reduced FosB/JunD bZIP heterodimer (FJ^red) (complex)
chain 1: EEEEKRRVRRERNKLAAAKCRNRRRELTDRLQAETDQLEEEKAELESEIAELQKEKERLEFVLVAHK
chain 2: QERIKAERKRLRNRIAASKCRKRKLERISRLEEKVKTLKSQNTELASTASLLREQVAQLKQKVLSHV
binding result [3]: binds

B4: oxidized form of FosB/JunD bZIP heterodimer (FJ^oxi) (complex)
chain 1: EEEEKRRVRRERNKLAAAKCRNRRRELTDRLQAETDQLEEEKAELESEIAELQKEKERLEFVLVAHK
chain 2: QERIKAERKRLRNRIAASKCRKRKLERISRLEEKVKTLKSQNTELASTASLLREQVAQLKQKVLSHV
binding result (crystal structure): binds
